B1: IGF1R-4 VHH, wild-type (VHH)
VHH: QVKLEESGGGLVQAGGSLRLSCEVSGGTVSPTAMGWFRQAPGKEREFVGHITWSRGTTRVASSVKDRFTISRDSAKNTVYLQMNSLKSEDTAVYYCAASTFLRILPEESAYTYWGQGTQVTVSS
notes: anti-human IGF1R; bears Val59, Asp65 (Kabat); source: E. coli TG1, periplasm (osmotic shock), purified (IMAC)
B2: IGF1R-4 VHH, humanized (VHH)
VHH: QVQLVESGGGLVQPGGSLRLSCAVSGGTVSPTAMGWFRQAPGKGLEFVGHITWSRGTTRYASSVKGRFTISRDNSKNTVYLQMNSLRAEDTAVYYCAASTFLRILPEESAYTYWGQGTLVTVSS
notes: as the VHH of m18 with FRs reverted to human IGHV3 germline; also called humanized IGF1R-4; source: E. coli TG1, periplasm (osmotic shock), purified (IMAC); periplasmic extract for protein A chromatography
B3: IGF1R-5 VHH, wild-type (VHH)
VHH: QVKLEESGGGLVQAGGSLRLSCAASGRTIDNYAMAWSRQAPGKDREFVATIDWGDGGARYANSVKGRFTISRDNAKGTMYLQMNNLEPEDTAVYSCAMARQSRVNLDVARYDYWGQGTQVTVSS
notes: anti-human IGF1R; bears Ala57, Asn82b (Kabat); source: E. coli TG1, periplasm (osmotic shock), purified (IMAC)
B4: IGF1R-5 VHH, humanized (VHH)
VHH: QVQLVESGGGLVQPGGSLRLSCAASGRTIDNYAMAWSRQAPGKGLEFVATIDWGDGGTRYANSVKGRFTISRDNSKNTMYLQMNSLRAEDTAVYYCAMARQSRVNLDVARYDYWGQGTLVTVSS
notes: as the VHH of m23 with FRs reverted to human IGHV3 germline; also called humanized IGF1R-5; source: E. coli TG1, periplasm (osmotic shock), purified (IMAC); periplasmic extract for protein A chromatography
B5: ICAM11-4 VHH, wild-type (VHH)
VHH: QVQLVESGGGLVQPGGSLRLSCAASGSISSLYVMGWYRQAPGKQRELVADITSSGSIYYVDSLKGRFTISRDNARSTVYLQMNSLEPEDTAVYYCMAHVRQDSGSEYLTYWGQGTQVTVSS
notes: anti-human ICAM-1; bears Ile57 (Kabat); source: E. coli TG1, periplasm (osmotic shock), purified (IMAC)
B6: ICAM11-4 VHH I57T (SpA-engineered) (VHH)
VHH: QVQLVESGGGLVQPGGSLRLSCAASGSISSLYVMGWYRQAPGKQRELVADITSSGSTYYVDSLKGRFTISRDNARSTVYLQMNSLEPEDTAVYYCMAHVRQDSGSEYLTYWGQGTQVTVSS
notes: as the VHH of m6 with the stated change; numbers count on: Kabat numbering; also called ICAM11-4 I57T; SpA-engineered ICAM11-4; source: E. coli TG1, periplasm (osmotic shock), purified (IMAC); periplasmic extract for protein A chromatography
B7: ICAM34-1 VHH, wild-type (VHH)
VHH: QVKLEESGGGLVQPGGSLRLSCAASGSIFSINDMGWYRQAPGKQRELVARITRDGSAAYEDSVKGRFTISRDNAPNTVFLQMNGLKPEDTAVYYCNAEIITTQTLGRMLGEYWGQGTQVTVSS
notes: anti-human ICAM-1; bears Ala57, Pro75, Gly82b (Kabat); source: E. coli TG1, periplasm (osmotic shock), purified (IMAC)

target: T1, human IGF1R ectodomain (Homo sapiens, UniProt P08069); assay: SPR; SEC-purified VHH monomers, 0.1-10 nM, over human IGF1R ectodomain amine-coupled to a CM5 chip (476 RU); 25°C, HBS-EP pH 7.4; 1:1 binding model; conditions: both partners purified
T1 construct: human IGF1R, ectodomain; source: bought: R&D Systems
T1 sequence (P08069 741-935): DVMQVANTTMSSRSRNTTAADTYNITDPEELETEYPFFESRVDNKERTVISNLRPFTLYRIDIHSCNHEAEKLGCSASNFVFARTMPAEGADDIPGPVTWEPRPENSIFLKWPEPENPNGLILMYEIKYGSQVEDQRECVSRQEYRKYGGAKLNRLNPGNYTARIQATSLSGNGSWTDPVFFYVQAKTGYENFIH

B1 and B2 are within 1.5-fold of each other in Kd: 0.3 nM for the first, 0.4 nM for the second.

B3 and B4 are within 1.5-fold of each other in Kd: 0.8 nM for the first, 0.9 nM for the second.

target: T2, human ICAM-1 ectodomain (Homo sapiens, UniProt P05362); assay: SPR; SEC-purified VHH monomers, 0.5-200 nM, over human ICAM-1 ectodomain amine-coupled to a CM5 chip (1348 RU); 25°C, HBS-EP pH 7.4; 1:1 binding model; conditions: both partners purified
T2 construct: human ICAM-1, ectodomain; source: bought: R&D Systems
T2 sequence (P05362 28-480): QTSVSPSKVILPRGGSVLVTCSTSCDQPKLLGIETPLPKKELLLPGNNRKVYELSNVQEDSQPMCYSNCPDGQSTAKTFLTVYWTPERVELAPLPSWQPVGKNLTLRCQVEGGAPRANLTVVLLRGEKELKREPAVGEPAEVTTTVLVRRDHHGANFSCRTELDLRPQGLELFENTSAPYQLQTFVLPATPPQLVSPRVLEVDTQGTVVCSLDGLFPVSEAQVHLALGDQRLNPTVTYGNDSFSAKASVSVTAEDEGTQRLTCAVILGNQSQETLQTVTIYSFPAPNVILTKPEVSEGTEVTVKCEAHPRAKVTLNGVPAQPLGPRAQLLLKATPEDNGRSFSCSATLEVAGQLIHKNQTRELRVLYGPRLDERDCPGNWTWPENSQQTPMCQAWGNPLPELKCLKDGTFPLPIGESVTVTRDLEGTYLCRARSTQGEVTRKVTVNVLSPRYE

B5 and B6 are within 1.5-fold of each other in Kd: 0.9 nM for the first, 1.3 nM for the second.

B7 showed a Kd of 32 nM.

From publication PMC5025174 (PLoS ONE, 2016)
